In PMC10449786:

Target: human citrullinated fibrinogen (hCitFbg) (human) (UniProt P02671)
Assay: ELISA; Fbg or citrullinated Fbg coated (0.8 μg/mL in PBS, overnight 4 °C); recombinant SAA 10–2000 ng/mL added, 1 h at 37 °C; detected with anti-hSAA1; apparent Kd

- apparent Kd relative to hSAA1-hFbg: 0.5 fold
B1: recombinant human serum amyloid A1 (hSAA1) (natural protein)
chain: RSFFSFLGEAFDGARDMWRAYSDMREANYIGSDKYFHARGNYDAAKRGPGGAWAAEVITDARENIQRFFGHGAEDSLADQAANEWGRSGKDPNHFRPAGLPEKY
